Experimental findings from patent US20060252724A1 (Pfizer, published 2006) are described below.

The target of the experiment is T1, rhBMP-2 (recombinant human bone morphogenetic protein-2) (human, UniProt P12643 283-396).
T1 construct: Control protein on the Western blot; Analysed on reducing SDS-PAGE
The experiment is described as follows: co-immunoprecipitation.

T1 sequence (P12643 283-396 limits assumed): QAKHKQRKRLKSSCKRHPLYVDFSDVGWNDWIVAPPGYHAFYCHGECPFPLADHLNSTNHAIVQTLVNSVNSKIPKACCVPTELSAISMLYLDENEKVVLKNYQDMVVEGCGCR

B1: retrovirally produced BMP-3 (from pBABE-BMP3, full-length human BMP-3 cDNA, secreted by infected W-20-17 cells) (ligand)
chain: QWIEPRNCARRYLKVDFADIGWSEWIISPKSFDAYYCSGACQFPMPKSLKPSNHATIQSIVRAVGVVPGIPEPCCVPEKMSSLSILFFDENKNVVLKVYPNMTVESCACR
notes: Expressed from the full-length human cDNA; The secreted, processed form has a most abundant monomer of about 28 kD, with glycosylated or alternatively processed forms; also called vBMP3; BMP-3 CM
B1: the binding result is “no binding”.
